Results: patent US20110158992A1 (SCHERING, published 2011)
Where a chain is given by its changes, count along the chain named. Names and notes keep the numbering of the source.

T1: biotinylated huIL-23R-IgG (human, UniProt Q5VWK5 24-353, biotinylated)
T1 construct: not shown: human IgG1 Fc
T1 sequence: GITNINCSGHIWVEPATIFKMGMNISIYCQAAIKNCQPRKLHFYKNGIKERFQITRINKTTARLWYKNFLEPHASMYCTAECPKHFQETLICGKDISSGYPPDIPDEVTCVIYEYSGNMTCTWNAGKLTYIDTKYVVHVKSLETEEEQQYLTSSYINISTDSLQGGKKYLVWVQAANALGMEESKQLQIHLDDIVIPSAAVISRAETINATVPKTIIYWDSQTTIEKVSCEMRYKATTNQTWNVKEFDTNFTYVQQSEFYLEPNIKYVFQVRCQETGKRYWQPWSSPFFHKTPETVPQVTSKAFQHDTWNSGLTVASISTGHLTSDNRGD

T2: human IL-23R (human, UniProt Q5VWK5 24-353, limits assumed)
T2 construct: also called huIL-23R; human interleukin-23R
T2 sequence: T1 sequence

B1: chimeric 8B10 Fab, VH H102A (Fab, V domains shown)
VH: EVKLVESGGGLEQPKGSLKLSCTVSGFDFNSYGMSWVRQAPGKGLDLVADINSKSYNYATYYADSVKDRFTISRDDSQSMVYLEMDNLKTEDTALYYCTVHASDYFEYWGQGVMVTVSS
VL: DIQMTQSPASLSASLGETVSIECLASEDIYNNLAWYQQKPGKSPQLLIYHASSLQDGVPSRFSGSGSGTQYSLKINSLESEDAATYFCLQDSEYPPTFGGGTKLELKR
notes: Rat V domains with human CH1 and CL; E. coli periplasmic extract
B2: chimeric 8B10 Fab, VH Y105A (Fab, V domains shown)
VH: B1 VH with A102H, Y105A
VL: B1 VL
notes: as for B1
B3: chimeric 8B10 Fab, VH D104A (Fab, V domains shown)
VH: B1 VH with A102H, D104A
VL: B1 VL
notes: as for B1
B4: chimeric 8B10 Fab, VL N31A (Fab, V domains shown)
VH: B1 VH with A102H
VL: B1 VL with N31A
notes: as for B1
B5: chimeric 8B10 Fab, VL D91A (Fab, V domains shown)
VH: B1 VH with A102H
VL: B1 VL with D91A
notes: as for B1
B6: chimeric 8B10 Fab, VL H50A (Fab, V domains shown)
VH: B1 VH with A102H
VL: B1 VL with H50A
notes: as for B1
B7: chimeric 8B10 Fab, VL Y49A (Fab, V domains shown)
VH: B1 VH with A102H
VL: B1 VL with Y49A
notes: as for B1
B8: chimeric 8B10 Fab, VH F106A (Fab, V domains shown)
VH: B1 VH with A102H, F106A
VL: B1 VL
notes: as for B1
B9: chimeric 8B10 Fab, VH H101A (Fab, V domains shown)
VH: B1 VH with H101A, A102H
VL: B1 VL
notes: as for B1
B10: chimeric 8B10 Fab, VH R74A (Fab, V domains shown)
VH: B1 VH with R74A, A102H
VL: B1 VL
notes: as for B1
B11: chimeric 8B10 Fab, VH Y32A (Fab, V domains shown)
VH: B1 VH with Y32A, A102H
VL: B1 VL
notes: as for B1
B12: chimeric 8B10 Fab, VH Y61A (Fab, V domains shown)
VH: B1 VH with Y61A, A102H
VL: B1 VL
notes: as for B1
B13: chimeric 8B10 Fab, VL N32A (Fab, V domains shown)
VH: B1 VH with A102H
VL: B1 VL with N32A
notes: as for B1
B14: chimeric 8B10 Fab, VH S53A (Fab, V domains shown)
VH: B1 VH with S53A, A102H
VL: B1 VL
notes: Rat V domains with human CH1 and CL; E. coli periplasmic extract; also called S53A (heavy chain variable domain)
B15: chimeric 8B10 Fab, VL S53A (Fab, V domains shown)
VH: B1 VH with A102H
VL: B1 VL with S53A
notes: Rat V domains with human CH1 and CL; E. coli periplasmic extract; also called S53A (light chain variable domain)
B16: chimeric 8B10 Fab, VH Y58G (Fab, V domains shown)
VH: B1 VH with Y58G, A102H
VL: B1 VL
notes: as for B1
B17: chimeric 8B10 Fab, VL E93A (Fab, V domains shown)
VH: B1 VH with A102H
VL: B1 VL with E93A
notes: as for B1
B18: chimeric 8B10 Fab, VH A49G (Fab, V domains shown)
VH: B1 VH with A49G, A102H
VL: B1 VL
notes: as for B1
B19: chimeric 8B10 Fab, VH G33A (Fab, V domains shown)
VH: B1 VH with G33A, A102H
VL: B1 VL
notes: as for B1
B20: chimeric 8B10 Fab, VL N31T (Fab, V domains shown)
VH: B1 VH with A102H
VL: B1 VL with N31T
notes: as for B1
B21: chimeric 8B10 Fab, VL D28A (Fab, V domains shown)
VH: B1 VH with A102H
VL: B1 VL with D28A
notes: as for B1
B22: chimeric 8B10 Fab, VH S55A (Fab, V domains shown)
VH: B1 VH with S55A, A102H
VL: B1 VL
notes: as for B1
B23: chimeric 8B10 Fab, VL Y30A (Fab, V domains shown)
VH: B1 VH with A102H
VL: B1 VL with Y30A
notes: as for B1
B24: chimeric 8B10 Fab, VH D50A (Fab, V domains shown)
VH: B1 VH with D50A, A102H
VL: B1 VL
notes: as for B1
B25: chimeric 8B10 Fab, VH S103A (Fab, V domains shown)
VH: B1 VH with A102H, S103A
VL: B1 VL
notes: as for B1
B26: chimeric 8B10 Fab, VH S31A (Fab, V domains shown)
VH: B1 VH with S31A, A102H
VL: B1 VL
notes: as for B1
B27: chimeric 8B10 Fab, VH I51A (Fab, V domains shown)
VH: B1 VH with I51A, A102H
VL: B1 VL
notes: as for B1
B28: chimeric 8B10 Fab, VL S92A (Fab, V domains shown)
VH: B1 VH with A102H
VL: B1 VL with S92A
notes: as for B1
B29: chimeric 8B10 Fab, VH N52A (Fab, V domains shown)
VH: B1 VH with N52A, A102H
VL: B1 VL
notes: as for B1
B30: chimeric 8B10 Fab, VH E107A (Fab, V domains shown)
VH: B1 VH with A102H, E107A
VL: B1 VL
notes: as for B1
B31: chimeric 8B10 Fab, VH K54A (Fab, V domains shown)
VH: B1 VH with K54A, A102H
VL: B1 VL
notes: as for B1
B32: chimeric 8B10 Fab, VL E27A (Fab, V domains shown)
VH: B1 VH with A102H
VL: B1 VL with E27A
notes: as for B1
B33: humanized anti-human IL-23R antibody hu8B10-b (antibody, V domains shown)
VH: QVQLVESGGGVVQPGRSLRLSCAASGFDFNSYGMSWVRQAPGKGLDLVADINSKSYNYATYYADSVKDRFTISRDNSKNTLYLQMNSLRAEDTAVYYCAVHHSDYFEYWGQGTLVTVSS
VL: DIQMTQSPSSLSASVGDRVTITCRASQDIYTNLAWYQQKPGKAPKLLIYHASSLQDGVPSRFSGSGSGTDYTLTISSLQPEDFATYYCLQDSEYPPTFGQGTKVEIKR
B34: antibody with hu8B10-b VH and hu8B10 VL N31T (antibody, V domains shown)
VH: B33 VH
VL: B33 VL with R24L, Q27E, Y71F
notes: also called VH: hu8B10-b / VL: hu8B10 N31T
B35: antibody with hu8B10 VH and hu8B10 VL N31T (antibody, V domains shown)
VH: B33 VH with D46E, L47W, V100R
VL: B33 VL with R24L, Q27E, Y71F
notes: also called VH: hu8B10 / VL: hu8B10 N31T

Target: T1, biotinylated huIL-23R-IgG
Assay: ECL binding assay, periplasmic Fab extracts, biotinylated huIL-23R-IgG; AUC vs parental 8B10 Fab
From the text: The N31T change was introduced as a result of affinity maturation experiments, as follows. An E. coli expression vector for expression into the periplasmic space was constructed encoding a chimeric Fab fragment of rat antibody 8B10 comprising rat variable domains, a human constant light chain domain (CL) and a human constant heavy chain domain CH1. Mutations were introduced using a QuikChange® site directed mutagenesis kit (Stratagene Inc., LaJolla, Calif., USA). Primers were designed to replace selected positions with either alanine, or by all 20 amino acids, using the NNK codon approach (N includes an equimolar mix of A/G/C/T and K includes only G/T). To reduce background, alanine mutants at each position were used as the template for the randomization step. Unpurified periplasmic extracts were then tested for human IL-23R binding activity using an electrochemiluminescence assay with biotinylated huIL-23R-IgG and goat anti-huFab-Ori-Tag for detection. The area under the curve was used to compare the binding activity of sequence variants to the original parental 8B10 Fab. Data were fitted using GraphPad Prism® 3.0 software (Graphpad Software inc., San Diego, Calif. USA).

Binding (% of w.t.) | Binder
84.2 % of w.t. | B1
18.3 % of w.t. | B2
1.5 % of w.t. | B3
117 % of w.t. | B4
5.6 % of w.t. | B5
62.2 % of w.t. | B6
62.4 % of w.t. | B7
71.1 % of w.t. | B8
29.1 % of w.t. | B9
52.6 % of w.t. | B10
76.3 % of w.t. | B11
41.7 % of w.t. | B12
13.4 % of w.t. | B13
88.7 % of w.t. | B14
85 % of w.t. | B15
53 % of w.t. | B16

Binding (% of w.t.) | Binder
62.8 % of w.t. | B17
79 % of w.t. | B18
27.4 % of w.t. | B19
129 % of w.t. | B20
93.1 % of w.t. | B21
105 % of w.t. | B22
3.2 % of w.t. | B23
67.3 % of w.t. | B24
65.7 % of w.t. | B25
100 % of w.t. | B26
123 % of w.t. | B27
68.4 % of w.t. | B28
38.7 % of w.t. | B29
61 % of w.t. | B30
71.1 % of w.t. | B31
96.2 % of w.t. | B32

Target: T2, human IL-23R
Assay: BIAcore SPR, antibody immobilised
Protocol: BIAcore® label-free interaction analysis system determinations are performed essentially as described at Example 4 of U.S. Patent Application Publication No. 2007/0048315, which is hereby incorporated by reference. Briefly, ligands (anti-IL-23R mAbs) are immobilized on a BIAcore® label-free interaction analysis system CM5 sensor chip using standard amine-coupling procedure. Kinetic constants for the various interactions are determined using BIAevaluation software 3.1. The Kd is determined using the calculated dissociation and association rate constants.
Several sequence variants intended to increase the chemical stability of hu8B10-b were produced to evaluate their effects on binding affinity. Kd values are provided at Table 3. Binding to human IL-23R was determined using the BIAcore® label-free interaction analysis system (surface plasmon resonance), essentially as described in Example 4 (supra). Chimeric forms, designated as “chim,” refers to rat variable domains linked to human IgG1 heavy chain and human kappa light chain constant domains, e.g., as presented at SEQ ID NOs: 16 and 17, respectively, or as at SEQ ID NOs: 22 and 23, respectively. Sequences for heavy and light chain variable domains are provided at FIGS. 1 and 2, and in the Sequence Listing (as described at Table 4). Antibodies incorporate the sequence changes recited in the table (“Variant(s)”) for the respective heavy and light chains. Data arc presented as mean±standard deviation for multiple determinations, and without error estimates for single determinations.

Kd | binding result | Binder
0.154 nM | – | B33
5.38 nM | – | B34
– | no binding | B35
